# Experimental data from publication PMC4267655, “Brr2p carboxy-terminal Sec63 domain modulates Prp16 splicing RNA helicase” (Nucleic Acids Research, 2014).
# B1: Prp16p (wild type), LexA-bait fusion [budding yeast] / Brr2 H2-Sec63-2p (wild type), Gal4AD-prey fusion [budding yeast] (parent complex)
# chain 1: MGHSGREERIKDIFKELTSKELTPGLLLTLQKLAQKPNTNLEQFIASCKALTKLSSNNPIIFNELLELLKNKSEEDSTGPKKIAPSINKRKKFKIQLDLDDNEDELDSPVQKKPAPTRTLFKRIDKLKAKQLRQYSPTVKDPSPNSEQQTQNGHAETKDYEPTRSEVVEEDREWYDNDDDYGNLVPEPLSELPEEAKLLPVIRNIDNDDALRNTVQLYPIPLKQRMEWIPPFLSKFALENKVPTSIIIGSISETSSQVSALSMVNPFRNPDSEFSANAKRGSKLVALRRINMEHIQQSRDNTTVLNTAMGEVLGLENNNKAKDKSNQKICDDTALFTPSKDDIKHTKEQLPVFRCRSQLLSLIRENQVVVIIGETGSGKTTQLAQYLYEEGYANDRGKSIVVTQPRRVAAISVAKRVAMEMQVPLGKEVGYSIRFEDVTDSECTKLKFVTDGILLRETLLDDTLDKYSCVIIDEAHERSLNTDILLGFFKILLARRRDLKLIITSATMNAKKFSAFFGNAPQFTIPGRTFPVQTIYTSNPVQDYVEAAVSQAVKIHLANDCSSGDILIFMTGQEDIETTFDTLQEKFLQVYSKKFGTANFEEINDIEILPIYSALPADLQFKIFQDLHGTKRKIIIATNIAETSLTIKGIRYVIDCGYSKLKVYNPKIGLDSLVITPISKANADQRSGRAGRTAPGTAYRLYTEDTFKEDMYLQTIPEIQRTNLSNTLLLLKSLDVTDELSKFPFIDKPPLQTFLSSLYELWFIGAIDTSGQLTPLGLQMAKFPLQPSLSKILLIAVRNGCSDEMLTIVSMLSVPQVFYRPKERQKEADIARNKFFIAKSDHLTLLNVFEQWRANNFSSHWCNKHFVQYKSLVRARDIRDQLLTILKSQKIPVISSGKDWDIIKKCICSGFAHQAAKITGLRNYVHLKTGVSVQLHPTSALHGLGDLPPYVVYHELLMTSKEYICCVTSVDPFWLMEYGGLLYDIKRIKNDQEATTTGLFGEHYEHTLDKVEDDIDINIRRCKDMRDSVIQELKMTDNSNKEDKKQKTKKQNILNGKENSMKPFKRRKPFF
# chain 2: MTEHETKDKAKKIREIYRYDEMSNKVLKVDKRFMNTSQNPQRDAEISQPKSMSGRISAKDMGQGLCNNINKGLKENDVAVEKTGKSASLKKIQQHNTILNSSSDFRLHYYPKDPSNVETYEQILQWVTEVLGNDIPHDLIIGTADIFIRQLKENEENEDGNIEERKEKIQHELGINIDSLKFNELVKLMKNITDYETHPDNSNKQAVAILADDEKSDEEEVTEMSNNANVLGGEINDNEDDDEEYDYNDVEVNSKKKNKRALPNIENDIIKLSDSKTSNIESVPIYSIDEFFLQRKLRSELGYKDTSVIQDLSEKILNDIETLEHNPVALEQKLVDLLKFENISLAEFILKNRSTIFWGIRLAKSTENEIPNLIEKMVAKGLNDLVEQYKFRETTHSKRELDSGDDQPQSSEAKRTKFSNPAIPPVIDLEKIKFDESSKLMTVTKVSLPEGSFKRVKPQYDEIHIPAPSKPVIDYELKEITSLPDWCQEAFPSSETTSLNPIQSKVFHAAFEGDSNMLICAPTGSGKTNIALLTVLKALSHHYNPKTKKLNLSAFKIVYIAPLKALVQEQVREFQRRLAFLGIKVAELTGDSRLSRKQIDETQVLVSTPEKWDITTRNSNNLAIVELVRLLIIDEIHLLHDDRGPVLESIVARTFWASKYGQEYPRIIGLSATLPNYEDVGRFLRVPKEGLFYFDSSFRPCPLSQQFCGIKERNSLKKLKAMNDACYEKVLESINEGNQIIVFVHSRKETSRTATWLKNKFAEENITHKLTKNDAGSKQILKTEAANVLDPSLRKLIESGIGTHHAGLTRSDRSLSEDLFADGLLQVLVCTATLAWGVNLPAHTVIIKGTDVYSPEKGSWEQLSPQDVLQMLGRAGRPRYDTFGEGIIITDQSNVQYYLSVLNQQLPIESQFVSKLVDNLNAEVVAGNIKCRNDAVNWLAYTYLYVRMLASPMLYKVPDISSDGQLKKFRESLVHSALCILKEQELVLYDAENDVIEATDLGNIASSFYINHASMDVYNRELDEHTTQIDLFRIFSMSEEFKYVSVRYEEKRELKQLLEKAPIPIREDIDDPLAKVNVLLQSYFSQLKFEGFALNSDIVFIHQNAGRLLRAMFEICLKRGWGHPTRMLLNLCKSATTKMWPTNCPLRQFKTCPVEVIKRLEASTVPWGDYLQLETPAEVGRAIRSEKYGKQVYDLLKRFPKMSVTCNAQPITRSVMRFNIEIIADWIWDMNVHGSLEPFLLMLEDTDGDSILYYDVLFITPDIVGHEFTLSFTYELKQHNQNNLPPNFFLTLISENWWHSEFEIPVSFNGFKLPKKFPPPTPLLENISISTSELGNDDFSEVFEFKTFNKIQSQVFESLYNSNDSVFVGSGKGTGKTAMAELALLNHWRQNKGRAVYINPSGEKIDFLLSDWNKRFSHLAGGKIINKLGNDPSLNLKLLAKSHVLLATPVQFELLSRRWRQRKNIQSLELMIYDDAHEISQGVYGAVYETLISRMIFIATQLEKKIRFVCLSNCLANARDFGEWAGMTKSNIYNFSPSERIEPLEINIQSFKDVEHISFNFSMLQMAFEASAAAAGNRNSSSVFLPSRKDCMEVASAFMKFSKAIEWDMLNVEEEQIVPYIEKLTDGHLRAPLKHGVGILYKGMASNDERIVKRLYEYGAVSVLLISKDCSAFACKTDEVIILGTNLYDGAEHKYMPYTINELLEMVGLASGNDSMAGKVLILTSHNMKAYYKKFLIEPLPTESYLQYIIHDTLNNEIANSIIQSKQDCVDWFTYSYFYRRIHVNPSYYGVRDTSPHGISVFLSNLVETCLNDLVESSFIEIDDTEAEVTAEVNGGDDEATEIISTLSNGLIASHYGVSFFTIQSFVSSLSNTSTLKNMLYVLSTAVEFESVPLRKGDRALLVKLSKRLPLRFPEHTSSGSVSFKVFLLLQAYFSRLELPVDFQNDLKDILEKVVPLINVVVDILSANGYLNATTAMDLAQMLIQGVWDVDNPLRQIPHFNNKILEKCKEINVETVYDIMALEDEERDEILTLTDSQLAQVAAFVNNYPNVELTYSLNNSDSLISGVKQKITIQLTRDVEPENLQVTSEKYPFDKLESWWLVLGEVSKKELYAIKKVTLNKETQQYELEFDTPTSGKHNLTIWCVCDSYLDADKELSFEINVK
# Variants of: B1
# Assay: Y2H interaction assay; growth on -LWH medium with 3-AT; parent: 50 nM
row,Variant,screen value [mM]
1,chain 1 L335F,50
2,chain 1 Q685H,50
3,chain 1 D473E,50
4,chain 1 K379R,50
5,chain 1 H476D,50

# The next lines start with the values.
row,screen value [mM],Variant
1,0,"chain 1 R456K, chain 1 G691R"
2,50,chain 1 T507A
3,0,chain 1 R686I
4,50,chain 1 R686Q

# Variants of: B1
# Assay: as above
# Remark: another data set of the same source
row,screen value [mM],Variant
1,150,chain 2 R1899G
2,0,chain 2 L1951P
